# Results reported in PMC8028314, “Sae2 and Rif2 regulate MRX endonuclease activity at DNA double-strand breaks in opposite manners” (Cell Reports, 2021).
# B1: MBP-Rif2-his (natural protein, S. cerevisiae, UniProt Q06208 1-395, looked up)
# chain: MEHVDSDFAPIRRSKKVVDSDKIVKAISDDLEQKNFTVLRKLNLVPIKKSVSSPKVCKPSPVKERVDHVFYQKFKSMALQELGTNYLSISYVPSLSKFLSKNLRSMKNCIVFFDKVEHIHQYAGIDRAVSETLSLVDINVVIIEMNDYLMKEGIQSSKSKECIESMGQASYSGQLDFEASEKPSNHTSDLMMMVMRKINNDESIDHIVYFKFEQLDKLSTSTIIEPSKLTEFINVLSVLEKSNNIAFKVLIYSNNVSISSLLSTSLKKKLNTKYTVFEMPILTCAQEQEYLKKMIKFTFDSGSKLLQSYNSLVTCQLNNKESNLAIFFEFLKVFPHPFTYLFNAYTEIIVQSRTFDELLDKIRNRLTIKNYPHSAYNFKKNQRLPLKLTRKVHDR
# notes: Rif2, S. cerevisiae; recombinant full-length Rif2; The MBP tag was cleaved with PreScission protease only after elution from the resin; In the ATPase and nuclease assays purified Rif2-his with MBP cleaved off was used; The construct was a gift from A. Bianchi; also called recombinant Rif2; not shown: MBP, N-terminal, kept; 10xHis, C-terminal, kept
# Target: T1, Mre11-Rad50 complex (S. cerevisiae, UniProt P32829 1-692; P12753 1-1312)
# T1 construct: Mre11, S. cerevisiae; Rad50, S. cerevisiae; untagged; they were not measured here; also called wild-type MR; source: Sf9 cells, purified (NiNTA, HiTrap SP HP, HiTrap Q HP); copies: 2 + 2
# T1 sequence (P32829 whole entry, chain 1 of 2): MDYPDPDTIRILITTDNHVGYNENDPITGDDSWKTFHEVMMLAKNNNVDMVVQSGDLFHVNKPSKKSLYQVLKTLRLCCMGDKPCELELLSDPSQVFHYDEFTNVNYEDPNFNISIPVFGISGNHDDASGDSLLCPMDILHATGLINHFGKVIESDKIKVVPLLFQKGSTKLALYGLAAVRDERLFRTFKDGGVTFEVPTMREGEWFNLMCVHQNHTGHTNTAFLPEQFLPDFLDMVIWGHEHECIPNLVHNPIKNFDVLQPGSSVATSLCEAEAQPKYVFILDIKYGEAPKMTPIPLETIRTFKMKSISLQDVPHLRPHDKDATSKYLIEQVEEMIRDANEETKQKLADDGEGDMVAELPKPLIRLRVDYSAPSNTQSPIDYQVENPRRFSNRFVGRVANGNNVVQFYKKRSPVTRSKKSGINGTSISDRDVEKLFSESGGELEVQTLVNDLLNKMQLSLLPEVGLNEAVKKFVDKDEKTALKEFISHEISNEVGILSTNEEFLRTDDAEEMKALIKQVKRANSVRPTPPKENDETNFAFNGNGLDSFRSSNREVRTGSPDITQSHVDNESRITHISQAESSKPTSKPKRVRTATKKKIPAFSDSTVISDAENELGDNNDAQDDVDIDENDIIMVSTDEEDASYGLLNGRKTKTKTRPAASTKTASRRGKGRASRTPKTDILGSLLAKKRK
# T1 sequence (P12753 whole entry, chain 2 of 2): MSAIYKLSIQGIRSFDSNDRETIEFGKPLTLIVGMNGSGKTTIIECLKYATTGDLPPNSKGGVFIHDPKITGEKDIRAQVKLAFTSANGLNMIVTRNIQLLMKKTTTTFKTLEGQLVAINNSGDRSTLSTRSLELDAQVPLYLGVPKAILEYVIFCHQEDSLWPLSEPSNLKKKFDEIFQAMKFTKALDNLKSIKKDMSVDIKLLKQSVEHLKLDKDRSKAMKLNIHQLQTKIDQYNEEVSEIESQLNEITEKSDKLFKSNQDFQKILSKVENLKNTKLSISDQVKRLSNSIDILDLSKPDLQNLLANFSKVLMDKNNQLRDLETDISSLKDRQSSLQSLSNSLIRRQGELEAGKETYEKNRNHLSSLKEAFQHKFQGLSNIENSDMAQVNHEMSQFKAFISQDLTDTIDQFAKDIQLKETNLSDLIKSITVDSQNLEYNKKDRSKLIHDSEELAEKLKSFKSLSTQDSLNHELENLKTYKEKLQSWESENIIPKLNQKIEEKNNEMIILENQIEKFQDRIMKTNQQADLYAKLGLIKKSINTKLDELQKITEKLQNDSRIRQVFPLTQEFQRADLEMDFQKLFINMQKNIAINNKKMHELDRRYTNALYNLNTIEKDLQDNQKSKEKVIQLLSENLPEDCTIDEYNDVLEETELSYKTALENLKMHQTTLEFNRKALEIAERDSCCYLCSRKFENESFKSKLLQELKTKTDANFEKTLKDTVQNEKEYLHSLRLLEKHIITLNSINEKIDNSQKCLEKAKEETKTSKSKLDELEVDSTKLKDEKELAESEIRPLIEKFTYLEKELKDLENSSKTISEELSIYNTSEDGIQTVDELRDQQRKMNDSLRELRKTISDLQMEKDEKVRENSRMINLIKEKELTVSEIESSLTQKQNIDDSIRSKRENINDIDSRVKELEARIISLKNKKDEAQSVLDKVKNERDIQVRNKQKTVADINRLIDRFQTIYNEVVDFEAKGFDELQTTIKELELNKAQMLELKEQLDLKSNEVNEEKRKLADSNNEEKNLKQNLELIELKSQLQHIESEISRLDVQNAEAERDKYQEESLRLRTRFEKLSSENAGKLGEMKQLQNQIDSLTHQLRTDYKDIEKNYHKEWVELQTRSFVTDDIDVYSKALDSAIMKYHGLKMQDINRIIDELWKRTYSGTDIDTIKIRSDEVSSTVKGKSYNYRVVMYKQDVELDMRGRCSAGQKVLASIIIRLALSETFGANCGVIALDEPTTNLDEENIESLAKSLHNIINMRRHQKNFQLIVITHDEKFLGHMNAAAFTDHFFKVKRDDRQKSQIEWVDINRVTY
# Assay: pull-down; MBP-Rif2-his from Sf9 lysate bound to amylose resin, washed with 1 M then 0.1 M NaCl buffer (50 mM Tris-HCl pH 7.5, 0.2% NP40, 2 mM EDTA); recombinant MR variants (1 ug) added, 1 h at 4°C; washed with 0.1 M NaCl buffer; eluted with 20 mM maltose and cleaved with PreScission protease; Ponceau (Rif2) and western blots (anti-Rad50, anti-His)
# Settings: both partners purified
binder,measurement,value
B1,binding result,binds
